{"source": "the supplement of paper PMC5998384", "key": {"HeLa Kyoto [1]": {"tested_on": "HeLa Kyoto", "assay": "melting temperature (median over replicates), in situ; higher = more thermally stable"}, "HeLa Kyoto [2]": {"tested_on": "HeLa Kyoto", "assay": "thermal stability score vs G1/S (z-score of summed log2 fold changes over temperatures); higher = more thermally stable than in G1/S"}, "HeLa Kyoto [3]": {"tested_on": "HeLa Kyoto", "assay": "solubility change mitosis vs G1/S (difference of NP-40 vs SDS log2 ratios) (log2 ratio difference); higher = more soluble in mitosis"}, "[4]": {"settings": "cell cycle stage: early G1 (4.5 h after nocodazole release)"}}, "data": [{"substance": "MRLVILDNYDLASEWAAKYICNRIIQFKPGQDRYFTLGLPTGSTPLGCYKKLIEYHKNGHLSFKYVKTFNMDEYVGLPRNHPESYHSYMWNNFFKHIDIDPNNAHILDGNAADLQAECDAFENKIKEAGGIDLFVGGIGPDGHIAFNEPGSSLVSRTRLKTLAMDTILANAKYFDGDLSKVPTMALTVGVGTVMDAREVMILITGAHKAFALYKAIEEGVNHMWTVSAFQQHPRTIFVCDEDATLELRVKTVKYFKGLMHVHNKLVDPLFSMKDGN [GNPDA2]", "values": [{"measurement": "melting temperature", "setting": "HeLa Kyoto [1]; cell cycle stage: G1/S", "result": 58.1, "unit": "°C"}, {"measurement": "melting temperature", "setting": "HeLa Kyoto [1]; cell cycle stage: mitosis", "result": 58.3, "unit": "°C"}, {"measurement": "thermal stability score", "setting": "HeLa Kyoto [2]; [4]", "result": -0.549}, {"measurement": "thermal stability score", "setting": "HeLa Kyoto [2]; cell cycle stage: mitosis", "result": -0.194}]}, {"substance": "MRPL15", "values": [{"measurement": "solubility change mitosis (log2)", "setting": "HeLa Kyoto [3]", "result": 0.041}]}, {"substance": "MRPL16", "values": [{"measurement": "solubility change mitosis (log2)", "setting": "HeLa Kyoto [3]", "result": 0.059}]}, {"substance": "MRPL17", "values": [{"measurement": "solubility change mitosis (log2)", "setting": "HeLa Kyoto [3]", "result": -0.0699}]}, {"substance": "MRPL19", "values": [{"measurement": "solubility change mitosis (log2)", "setting": "HeLa Kyoto [3]", "result": 0.048}]}, {"substance": "MRPL21", "values": [{"measurement": "solubility change mitosis (log2)", "setting": "HeLa Kyoto [3]", "result": 0.00832}]}, {"substance": "MRPL22", "values": [{"measurement": "solubility change mitosis (log2)", "setting": "HeLa Kyoto [3]", "result": -0.00907}]}, {"substance": "MRPL38", "values": [{"measurement": "solubility change mitosis (log2)", "setting": "HeLa Kyoto [3]", "result": -0.0167}]}, {"substance": "MRPL42", "values": [{"measurement": "solubility change mitosis (log2)", "setting": "HeLa Kyoto [3]", "result": 0.296}]}, {"substance": "MRPL44", "values": [{"measurement": "solubility change mitosis (log2)", "setting": "HeLa Kyoto [3]", "result": -0.0742}]}, {"substance": "MRPL49", "values": [{"measurement": "solubility change mitosis (log2)", "setting": "HeLa Kyoto [3]", "result": 0.257}]}, {"substance": "MRPL50", "values": [{"measurement": "solubility change mitosis (log2)", "setting": "HeLa Kyoto [3]", "result": 0.178}]}, {"substance": "MRPL55", "values": [{"measurement": "solubility change mitosis (log2)", "setting": "HeLa Kyoto [3]", "result": 0.249}]}, {"substance": "MRPL57", "values": [{"measurement": "solubility change mitosis (log2)", "setting": "HeLa Kyoto [3]", "result": -0.109}]}, {"substance": "MRPS2", "values": [{"measurement": "solubility change mitosis (log2)", "setting": "HeLa Kyoto [3]", "result": 0.0234}]}, {"substance": "MRPS12", "values": [{"measurement": "solubility change mitosis (log2)", "setting": "HeLa Kyoto [3]", "result": 0.0958}]}, {"substance": "MRPS18A", "values": [{"measurement": "solubility change mitosis (log2)", "setting": "HeLa Kyoto [3]", "result": 0.0389}]}, {"substance": "MRPS26", "values": [{"measurement": "solubility change mitosis (log2)", "setting": "HeLa Kyoto [3]", "result": 0.0692}]}, {"substance": "MRPS28", "values": [{"measurement": "solubility change mitosis (log2)", "setting": "HeLa Kyoto [3]", "result": 0.31}]}, {"substance": "MRSPVRDLARNDGEESTDRTPLLPGAPRAEAAPVCCSARYNLAILAFFGFFIVYALRVNLSVALVDMVDSNTTLEDNRTSKACPEHSAPIKVHHNQTGKKYQWDAETQGWILGSFFYGYIITQIPGGYVASKIGGKMLLGFGILGTAVLTLFTPIAADLGVGPLIVLRALEGLGEGVTFPAMHAMWSSWAPPLERSKLLSISYAGAQLGTVISLPLSGIICYYMNWTYVFYFFGTIGIFWFLLWIWLVSDTPQKHKRISHYEKEYILSSLRNQLSSQKSVPWVPILKSLPLWAIVVAHFSYNWTFYTLLTLLPTYMKEILRFNVQENGFLSSLPYLGSWLCMILSGQAADNLRAKWNFSTLCVRRIFSLIGMIGPAVFLVAAGFIGCDYSLAVAFLTISTTLGGFCSSGFSINHLDIAPSYAGILLGITNTFATIPGMVGPVIAKSLTPDNTVGEWQTVFYIAAAINVFGAIFFTLFAKGEVQNWALNDHHGHRH [SLC17A5]", "values": [{"measurement": "melting temperature", "setting": "HeLa Kyoto [1]; cell cycle stage: G1/S", "result": 57.3, "unit": "°C"}, {"measurement": "melting temperature", "setting": "HeLa Kyoto [1]; cell cycle stage: mitosis", "result": 57.6, "unit": "°C"}, {"measurement": "thermal stability score", "setting": "HeLa Kyoto [2]; [4]", "result": -3.39}, {"measurement": "thermal stability score", "setting": "HeLa Kyoto [2]; cell cycle stage: mitosis", "result": -4.02}]}, {"substance": "MSLLNCENSCGSSQSESDCCVAMASSCSAVTKDDSVGGTASTGNLSSSFMEEIQGYDVEFDPPLESKYECPICLMALREAVQTPCGHRFCKACIIKSIRDAGHKCPVDNEILLENQLFPDNFAKREILSLMVKCPNEGCLHKMELRHLEDHQAHCEFALMDCPQCQRPFQKFHINIHILKDCPRRQVSCDNCAASMAFEDKEIHDQNCPLANVICEYCNTILIREQMPNHYDLDCPTAPIPCTFSTFGCHEKMQRNHLARHLQENTQSHMRMLAQAVHSLSVIPDSGYISEVRNFQETIHQLEGRLVRQDHQIRELTAKMETQSMYVSELKRTIRTLEDKVAEIEAQQCNGIYIWKIGNFGMHLKCQEEEKPVVIHSPGFYTGKPGYKLCMRLHLQLPTAQRCANYISLFVHTMQGEYDSHLPWPFQGTIRLTILDQSEAPVRQNHEEIMDAKPELLAFQRPTIPRNPKGFGYVTFMHLEALRQRTFIKDDTLLVRCEVSTRFDMGSLRREGFQPRSTDAGV [TRAF6]", "values": [{"measurement": "melting temperature", "setting": "HeLa Kyoto [1]; cell cycle stage: G1/S", "result": 51.5, "unit": "°C"}, {"measurement": "melting temperature", "setting": "HeLa Kyoto [1]; cell cycle stage: mitosis", "result": 51.3, "unit": "°C"}, {"measurement": "thermal stability score", "setting": "HeLa Kyoto [2]; [4]", "result": 0.286}, {"measurement": "thermal stability score", "setting": "HeLa Kyoto [2]; cell cycle stage: mitosis", "result": -0.125}]}, {"substance": "MSSVQSQQEQLSQSDPSPSPNSCSSFELIDMDAGSLYEPVSPHWFYCKIIDSKETWIPFNSEDSQQLEEAYSSGKGCNGRVVPTDGGRYDVHLGERMRYAVYWDELASEVRRCTWFYKGDKDNKYVPYSESFSQVLEETYMLAVTLDEWKKKLESPNREIIILHNPKLMVHYQPVAGSDDWGSTPTEQGRPRTVKRGVENISVDIHCGEPLQIDHLVFVVHGIGPACDLRFRSIVQCVNDFRSVSLNLLQTHFKKAQENQQIGRVEFLPVNWHSPLHSTGVDVDLQRITLPSINRLRHFTNDTILDVFFYNSPTYCQTIVDTVASEMNRIYTLFLQRNPDFKGGVSIAGHSLGSLILFDILTNQKDSLGDIDSEKDSLNIVMDQGDTPTLEEDLKKLQLSEFFDIFEKEKVDKEALALCTDRDLQEIGIPLGPRKKILNYFSTRKNSMGIKRPAPQPASGANIPKESEFCSSSNTRNGDYLDVGIGQVSVKYPRLIYKPEIFFAFGSPIGMFLTVRGLKRIDPNYRFPTCKGFFNIYHPFDPVAYRIEPMVVPGVEFEPMLIPHHKGRKRMHLELREGLTRMSMDLKNNLLGSLRMAWKSFTRAPYPALQASETPEETEAEPESTSEKPSDVNTEETSVAVKEEVLPINVGMLNGGQRIDYVLQEKPIESFNEYLFALQSHLCYWESEDTVLLVLKEIYQTQGIFLDQPLQ [DDHD2]", "values": [{"measurement": "melting temperature", "setting": "HeLa Kyoto [1]; cell cycle stage: G1/S", "result": 55.4, "unit": "°C"}, {"measurement": "melting temperature", "setting": "HeLa Kyoto [1]; cell cycle stage: mitosis", "result": 54.7, "unit": "°C"}, {"measurement": "thermal stability score", "setting": "HeLa Kyoto [2]; [4]", "result": 1.25}, {"measurement": "thermal stability score", "setting": "HeLa Kyoto [2]; cell cycle stage: mitosis", "result": 0.742}]}, {"substance": "MTQNKLKLCSKANVYTEVPDGGWGWAVAVSFFFVEVFTYGIIKTFGVFFNDLMDSFNESNSRISWIISICVFVLTFSAPLATVLSNRFGHRLVVMLGGLLVSTGMVAASFSQEVSHMYVAIGIISGLGYCFSFLPTVTILSQYFGKRRSIVTAVASTGECFAVFAFAPAIMALKERIGWRYSLLFVGLLQLNIVIFGALLRPIFIRGPASPKIVIQENRKEAQYMLENEKTRTSIDSIDSGVELTTSPKNVPTHTNLELEPKADMQQVLVKTSPRPSEKKAPLLDFSILKEKSFICYALFGLFATLGFFAPSLYIIPLGISLGIDQDRAAFLLSTMAIAEVFGRIGAGFVLNREPIRKIYIELICVILLTVSLFAFTFATEFWGLMSCSIFFGFMVGTIGGTHIPLLAEDDVVGIEKMSSAAGVYIFIQSIAGLAGPPLAGLLVDQSKIYSRAFYSCAAGMALAAVCLALVRPCKMGLCQHHHSGETKVVSHRGKTLQDIPEDFLEMDLAKNEHRVHVQMEPV [SLC16A6]", "values": [{"measurement": "melting temperature", "setting": "HeLa Kyoto [1]; cell cycle stage: G1/S", "result": 54.8, "unit": "°C"}, {"measurement": "melting temperature", "setting": "HeLa Kyoto [1]; cell cycle stage: mitosis", "result": 54.4, "unit": "°C"}, {"measurement": "thermal stability score", "setting": "HeLa Kyoto [2]; [4]", "result": -2.68}, {"measurement": "thermal stability score", "setting": "HeLa Kyoto [2]; cell cycle stage: mitosis", "result": -4.18}]}]}
